The experiment deals with human DPP6 protein (as used in the affinity analysis) (human, UniProt P42658 117-865, limits assumed). The experiment in a line: affinity analysis versus human DPP6 protein; method not stated.
Sequence of human DPP6 protein (as used in the affinity analysis) (P42658 117-865 limits assumed): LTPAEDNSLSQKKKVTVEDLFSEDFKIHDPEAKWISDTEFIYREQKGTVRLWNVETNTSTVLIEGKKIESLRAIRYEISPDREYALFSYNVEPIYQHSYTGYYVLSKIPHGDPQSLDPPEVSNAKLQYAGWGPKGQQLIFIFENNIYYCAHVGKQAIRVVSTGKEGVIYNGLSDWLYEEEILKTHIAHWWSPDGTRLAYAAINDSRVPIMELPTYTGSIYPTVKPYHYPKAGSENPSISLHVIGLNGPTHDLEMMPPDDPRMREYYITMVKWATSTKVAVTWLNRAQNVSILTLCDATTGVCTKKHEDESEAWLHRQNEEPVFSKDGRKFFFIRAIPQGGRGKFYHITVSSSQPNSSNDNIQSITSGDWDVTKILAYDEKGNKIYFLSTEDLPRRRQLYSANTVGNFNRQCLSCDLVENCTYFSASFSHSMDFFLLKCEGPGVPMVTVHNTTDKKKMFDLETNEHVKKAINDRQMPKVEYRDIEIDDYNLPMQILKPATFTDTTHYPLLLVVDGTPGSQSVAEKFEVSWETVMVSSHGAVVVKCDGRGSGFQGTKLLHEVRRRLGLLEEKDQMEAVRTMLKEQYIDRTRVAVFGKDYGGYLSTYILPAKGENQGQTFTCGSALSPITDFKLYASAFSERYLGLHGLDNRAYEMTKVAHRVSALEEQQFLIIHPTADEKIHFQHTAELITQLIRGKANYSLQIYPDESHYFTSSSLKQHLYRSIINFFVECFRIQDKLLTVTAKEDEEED

B1: nanobody 4hD29 (VHH)
VHH: QVQLQESGGGLVQPGGSLRLSCAASGFTFSSNYMTWVRQAPGKGPEWVSGINPDGSSTYYADSVKGRFTISRDNAKNTLYLQMNSLKSEDTALYKCATGAAPRIPTTLRGQGTQVTVSS
notes: Dromedary nanobody from an immune phage display library; also called Nb 4hD29; 4hD29 Nb
With B1, binding was put at a Kd of 1.2 nM.

In general, Kd refers to a measure of binding affinity in units of concentration. High values mean lower affinity, low ones higher affinity.

The values above are taken from patent publication EP3446126B1 (Université Libre de Bruxelles, dated 2024).
